# Experimental data: patent US20250073311A1, “DOSAGE REGIME” (ZEALAND PHARMA A/S, priority 2021, published 2025)
# Numbered stars: 1 amine (or outer) side, 2 acyl side, 3 side chain; on linkers, the order of the positions; unused ones are H or OH. Square brackets hold non-standard residues; d marks the D form. Side chains are listed from the residue outwards. * marks the point of attachment. C20 diacid = O=C(O)CCCCCCCCCCCCCCCCCCC(=O)*; C18 diacid = O=C(O)CCCCCCCCCCCCCCCCC(=O)*; γGlu = O=C(O)[C@H](CCC(=O)[*:2])N[*:1]; KEK = Lys-Glu-Lys peptide sequence; AEEA = NCCOCCOCC(=O)O; Aib = CC(C)(N)C(=O)O
# T1: human GLP-2 receptor (hGLP2-R) (human, UniProt O95838)
# T1 sequence: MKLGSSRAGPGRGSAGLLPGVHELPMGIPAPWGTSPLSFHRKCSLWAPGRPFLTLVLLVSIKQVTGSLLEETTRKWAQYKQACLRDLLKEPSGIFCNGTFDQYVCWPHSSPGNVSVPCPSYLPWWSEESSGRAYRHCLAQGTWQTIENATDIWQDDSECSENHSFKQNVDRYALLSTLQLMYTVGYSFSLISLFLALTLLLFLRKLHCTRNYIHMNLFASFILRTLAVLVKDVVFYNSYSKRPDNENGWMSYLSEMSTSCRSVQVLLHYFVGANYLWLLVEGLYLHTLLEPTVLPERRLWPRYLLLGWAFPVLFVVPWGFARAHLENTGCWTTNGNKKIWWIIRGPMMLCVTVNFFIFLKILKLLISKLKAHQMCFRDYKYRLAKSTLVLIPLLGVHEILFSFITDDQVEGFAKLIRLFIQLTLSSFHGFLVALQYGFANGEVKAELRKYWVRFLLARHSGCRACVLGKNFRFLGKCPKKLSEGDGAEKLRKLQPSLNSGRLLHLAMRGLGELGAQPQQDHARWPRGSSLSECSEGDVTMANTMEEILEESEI
# Assays:
# [1] = target: human glucagon-like peptide 1 receptor (GLP-1R) (human, UniProt P43220); experiment: cell-based or functional assay
# [2] = target: T1, human GLP-2 receptor (hGLP2-R); experiment: cell-based or functional assay
Binder,"EC50 GLP-1 (nM), cAMP AlphaScreen [1]","EC50 GLP-2 (nM), cAMP AlphaScreen [2]"
H-H[Aib]EGTFSSELATILDK([γGlu-C18 diacid])EAARDFIAWLIEHKITD-OH (SMILES CC[C@H](C)[C@H](NC(=O)[C@H](Cc1ccccc1)NC(=O)[C@H](CC(=O)O)NC(=O)[C@H](CCCNC(=N)N)NC(=O)[C@H](C)NC(=O)[C@H](C)NC(=O)[C@H](CCC(=O)O)NC(=O)[C@H](CCCCNC(=O)CC[C@H](NC(=O)CCCCCCCCCCCCCCCCC(=O)O)C(=O)O)NC(=O)[C@H](CC(=O)O)NC(=O)[C@H](CC(C)C)NC(=O)[C@@H](NC(=O)[C@@H](NC(=O)[C@H](C)NC(=O)[C@H](CC(C)C)NC(=O)[C@H](CCC(=O)O)NC(=O)[C@H](CO)NC(=O)[C@H](CO)NC(=O)[C@H](Cc1ccccc1)NC(=O)[C@@H](NC(=O)CNC(=O)[C@H](CCC(=O)O)NC(=O)C(C)(C)NC(=O)[C@@H](N)Cc1c[nH]cn1)[C@@H](C)O)[C@@H](C)O)[C@@H](C)CC)C(=O)N[C@@H](C)C(=O)N[C@@H](Cc1c[nH]c2ccccc12)C(=O)N[C@@H](CC(C)C)C(=O)N[C@H](C(=O)N[C@@H](CCC(=O)O)C(=O)N[C@@H](Cc1c[nH]cn1)C(=O)N[C@@H](CCCCN)C(=O)N[C@H](C(=O)N[C@H](C(=O)N[C@@H](CC(=O)O)C(=O)O)[C@@H](C)O)[C@@H](C)CC)[C@@H](C)CC) [Compound 1],0.63 nM,0.35 nM
H-H[Aib]EGTFSSELATILDK([AEEA-KEK-γGlu-C18 diacid])QAARDFIAWLIQHKITD-OH [Compound 47],0.44 nM,0.048 nM
H-H[Aib]EGTFSSELATILDK([AEEA-KEK-γGlu-C20 diacid])QAARDFIAWLIQHKITD-OH [Compound 48],0.47 nM,0.054 nM
H-H[Aib]EGTFSSELATILDK([AEEA-KEK-γGlu-C18 diacid])QAARDFIAWLIEHKITD-OH [Compound 49],0.27 nM,0.044 nM
H-H[Aib]EGTFSSELATILDK([AEEA-KEK-γGlu-C20 diacid])QAARDFIAWLIEHKITD-OH [Compound 50],0.31 nM,0.056 nM
H-H[Aib]EGTFTSELATILDK([KEK-γGlu-C20 diacid])QAARDFIAWLIQHKITD-OH [Compound 51],0.02 nM,0.18 nM
H-H[Aib]EGTFTSELATILDK([AEEA-KEK-γGlu-C20 diacid])QAARDFIAWLIQHKITD-OH [Compound 52],0.02 nM,0.075 nM
H-H[Aib]EGSFTSELATILDK([γGlu-C18 diacid])EAARDFIAWLIEHKITD-OH (SMILES CC[C@H](C)[C@H](NC(=O)[C@H](Cc1ccccc1)NC(=O)[C@H](CC(=O)O)NC(=O)[C@H](CCCNC(=N)N)NC(=O)[C@H](C)NC(=O)[C@H](C)NC(=O)[C@H](CCC(=O)O)NC(=O)[C@H](CCCCNC(=O)CC[C@H](NC(=O)CCCCCCCCCCCCCCCCC(=O)O)C(=O)O)NC(=O)[C@H](CC(=O)O)NC(=O)[C@H](CC(C)C)NC(=O)[C@@H](NC(=O)[C@@H](NC(=O)[C@H](C)NC(=O)[C@H](CC(C)C)NC(=O)[C@H](CCC(=O)O)NC(=O)[C@H](CO)NC(=O)[C@@H](NC(=O)[C@H](Cc1ccccc1)NC(=O)[C@H](CO)NC(=O)CNC(=O)[C@H](CCC(=O)O)NC(=O)C(C)(C)NC(=O)[C@@H](N)Cc1c[nH]cn1)[C@@H](C)O)[C@@H](C)O)[C@@H](C)CC)C(=O)N[C@@H](C)C(=O)N[C@@H](Cc1c[nH]c2ccccc12)C(=O)N[C@@H](CC(C)C)C(=O)N[C@H](C(=O)N[C@@H](CCC(=O)O)C(=O)N[C@@H](Cc1c[nH]cn1)C(=O)N[C@@H](CCCCN)C(=O)N[C@H](C(=O)N[C@H](C(=O)N[C@@H](CC(=O)O)C(=O)O)[C@@H](C)O)[C@@H](C)CC)[C@@H](C)CC) [Compound 2],0.13 nM,0.25 nM
H-H[Aib]EGSFTSEK([AEEA-KEK-γGlu-C20 diacid])ATILDEQAARDFIAWLIEHKITD-OH [Compound 53],0.076 nM,0.24 nM
H-H[Aib]EGTFTSEK([AEEA-KEK-γGlu-C20 diacid])ATILDEQAARDFIAWLIEHKITD-OH [Compound 54],0.034 nM,0.99 nM
H-H[Aib]EGSFTSEK([AEEA-AEEA-KEK-γGlu-C20 diacid])ATILDEQAARDFIAWLIEHKITD-OH [Compound 55],0.11 nM,0.78 nM
H-H[Aib]EGTFTSELATILDK([AEEA-KEK-γGlu-C20 diacid])QAARDFIAWLIEHKITD-OH [Compound 56],0.033 nM,0.076 nM
H-H[Aib]EGSFTSELATILDK([AEEA-KEK-γGlu-C20 diacid])QAARDFIAWLIEHKITD-OH [Compound 57],0.093 nM,0.083 nM
H-H[Aib]EGSFTSELATILDK([AEEA-KEK-γGlu-C20 diacid])QAARDFIAWLIAHKITD-OH [Compound 58],0.089 nM,0.09 nM
H-H[Aib]EGSFTSELATILDK([AEEA-KEK-γGlu-C20 diacid])KAARDFIAWLIEHKITD-OH [Compound 59],0.088 nM,0.11 nM
H-H[Aib]EGSFTSELATILDK([AEEA-AEEA-KEK-γGlu-C20 diacid])QAARDFIAWLIEHKITD-OH [Compound 60],0.097 nM,0.074 nM
H-H[Aib]EGSFTSELATILEGK([AEEA-KEK-γGlu-C20 diacid])AARDFIAWLIEHKITD-OH [Compound 61],0.13 nM,0.2 nM
H-H[Aib]EGSFTSELATILDAK([AEEA-KEK-γGlu-C20 diacid])AARDFIAWLIEHKITD-OH [Compound 62],0.27 nM,0.15 nM
H-H[Aib]EGTFTSELATILDK([γGlu-C18 diacid])EAARDFIAWLIEHKITD-OH (SMILES CC[C@H](C)[C@H](NC(=O)[C@H](Cc1ccccc1)NC(=O)[C@H](CC(=O)O)NC(=O)[C@H](CCCNC(=N)N)NC(=O)[C@H](C)NC(=O)[C@H](C)NC(=O)[C@H](CCC(=O)O)NC(=O)[C@H](CCCCNC(=O)CC[C@H](NC(=O)CCCCCCCCCCCCCCCCC(=O)O)C(=O)O)NC(=O)[C@H](CC(=O)O)NC(=O)[C@H](CC(C)C)NC(=O)[C@@H](NC(=O)[C@@H](NC(=O)[C@H](C)NC(=O)[C@H](CC(C)C)NC(=O)[C@H](CCC(=O)O)NC(=O)[C@H](CO)NC(=O)[C@@H](NC(=O)[C@H](Cc1ccccc1)NC(=O)[C@@H](NC(=O)CNC(=O)[C@H](CCC(=O)O)NC(=O)C(C)(C)NC(=O)[C@@H](N)Cc1c[nH]cn1)[C@@H](C)O)[C@@H](C)O)[C@@H](C)O)[C@@H](C)CC)C(=O)N[C@@H](C)C(=O)N[C@@H](Cc1c[nH]c2ccccc12)C(=O)N[C@@H](CC(C)C)C(=O)N[C@H](C(=O)N[C@@H](CCC(=O)O)C(=O)N[C@@H](Cc1c[nH]cn1)C(=O)N[C@@H](CCCCN)C(=O)N[C@H](C(=O)N[C@H](C(=O)N[C@@H](CC(=O)O)C(=O)O)[C@@H](C)O)[C@@H](C)CC)[C@@H](C)CC) [Compound 3],0.042 nM,0.33 nM
H-H[Aib]EGSFTSELATILDAK([AEEA-AEEA-KEK-γGlu-C20 diacid])AARDFIAWLIEHKITD-OH [Compound 63],0.31 nM,0.17 nM
H-H[Aib]EGSFTSELATILDEQAAK([AEEA-KEK-γGlu-C20 diacid])DFIAWLIEHKITD-OH [Compound 64],0.49 nM,0.2 nM
H-H[Aib]EGTFTSELATILDEQAAK([AEEA-KEK-γGlu-C20 diacid])DFIAWLIEHKITD-OH [Compound 65],0.13 nM,0.35 nM
